Measurements published in US20120114590A1 (priority 2005, published 2012).
Where two headings read alike, the source gives them in different places.

Assays:
Rhino 9 = assay type: cell-based, rhino virus; details: Rhino 9, HeLa
Adenovirus = assay type: cell-based; details: A549 cells, Neutral Red Assay
OAS = OAS activity in serum and plasma of mice (OAS radioimmunoassay); assay type: in vivo, mouse; details: C57BL/6 mice
Experimental: Serum and plasma were isolated from mice at varying time points, and OAS activity was measured using the OAS radioimmunoassay (RIA) kit from Eiken Chemicals (Tokyo, Japan).

West Nile virus [1] = assay type: cell-based; details: Vero cells, Neutral Red Assay
West Nile virus [2] = assay type: cell-based; details: Vero
[3] = system: Influenza (type A [H3N2]); assay type: cell-based; details: Maden-Darby Canine Kidney cells, Neutral Red Assay
Parainfluenza virus [4] = assay type: cell-based
[5] = system: Influenza (type A [H3N2]); assay type: cell-based; details: Vero
Vaccinia virus [6] = assay type: cell-based; details: Vero
Pichinde virus = assay type: cell-based
[7] = system: liver, spleen and blood of mice; assay: ISG gene expression (OAS, Pkr, Mx1) in liver, spleen and blood of injected C57BL/6 mice (real-time PCR); assay type: in vivo, mouse; details: for OAS-1 hr / OAS-6 hr / OAS-24 hr / OAS-48 hr: single injection of 250 μg i.v., average of 5 animals; for OAS (24 hr): fold expression relative to HPRT
Experimental: Mice were sacrificed at various time points (1 hr-48 hr). Spleens and livers were isolated from mice, and RNA was isolated. RNA was also isolated from the blood cells. The cells were pelleted and RNA isolated from pellets using RNAEasy®-kit (Qiagen). RNA was treated with DNase (Amicon) to rid RNA of any contaminating DNA. cDNA was generated using Perkin-Elmer RT mix (Perkin-Elmer). ISG gene induction was measured by real-time PCR using primers and probes specific for mouse OAS, Pkr and Mx1. To obtain quantitative data, HPRT real-time PCR was duplexed with ISG PCR. A standard curve was calculated using known amounts of IFN-stimulated mouse PBLs. All data are shown as expression relative to internal HPRT expression.

[8] = system: Influenza (type A [H3N2]); assay type: cell-based; details: Vero cells, Neutral Red Assay
EMCV = EMCV antiviral assay (MTT dye uptake) in HepG2 cells; assay type: cell-based, encephalomyocarditis virus; details: cytokine 24 hours before EMCV challenge
Rhino 2 = assay type: cell-based, rhino virus; details: Rhino 2, KB cells, Neutral Red Assay
Vaccinia virus [9] = assay type: cell-based; details: Vero cells, Neutral Red Assay
Parainfluenza virus [10] = assay type: cell-based; details: MA-104 cells, Neutral Red Assay
Coxsackie B4 virus = assay type: cell-based; details: KB cells, Neutral Red Assay

B1: IL-29: human IL-29 cytokine polypeptide (zcyto21), e.g. SEQ ID NO:20 (protein, listed as Homo sapiens)
chain: MAAAWTVVLVTLVLGLAVAGPVPTSKPTTTGKGCHIGRFKSLSPQELASFKKARDALEESLKLKNWSCSSPVFPGNWDLRLLQVRERPVALEAELALTLKVLEAAAGPALEDVLDQPLHTLHHILSQLQACIQPQPTAGPRPRGRLHHWLHRLQEAPKKESAGCLEASVTFNLFRLLTRDLKYVADGNLCLRTSTHPEST
modifications: SIGNAL (1)...(19)
EC50 Visual (Rhino 9): >10 µg/mL | IC50 Visual (Rhino 9; numerator of SI): >10 µg/mL | EC50 NR (Adenovirus): >10 µg/mL | IC50 NR (Adenovirus): >10 µg/mL | OAS activity in the serum and plasma of mice (OAS; i.v, 10 μg-250 μg): induced OAS activity | OAS-1 hr (OAS activity) (OAS; plasma, 1 hr, 250 μg i.v.): 80 pmol/dL of plasma | OAS-6 hr (OAS activity) (OAS; plasma, 6 hr, 250 μg i.v.): 80 pmol/dL of plasma | OAS-24 hr (OAS activity) (OAS; plasma, 24 hr, 250 μg i.v.): 180 pmol/dL of plasma | OAS-48 hr (OAS activity) (OAS; plasma, 48 hr, 250 μg i.v.): 200 pmol/dL of plasma | EC50 NR (West Nile virus [1]): 0.00025 µg/mL | IC50 NR (West Nile virus [1]): >10 µg/mL | EC50 Visual (West Nile virus [2]): 0.032 ng/mL | IC50 Visual (West Nile virus [2]; numerator of SI): >10 µg/mL | EC50 NR [3]: >10 µg/mL | IC50 NR [3]: >10 µg/mL | EC50 Visual (Parainfluenza virus [4]; MA-104): >10 µg/mL | IC50 Visual (Parainfluenza virus [4]; MA-104, numerator of SI): >10 µg/mL | EC50 Visual [5]: >10 µg/mL | IC50 Visual ([5]; numerator of SI): >10 µg/mL | EC50 Visual (Vaccinia virus [6]): >10 µg/mL | IC50 Visual (Vaccinia virus [6]; numerator of SI): >10 µg/mL | EC50 Visual (Pichinde virus): >10 µg/mL | IC50 Visual (Pichinde virus): >10 µg/mL | sustained expression of ISGs above control mice ([7]; C57BL/6 mice): up to 48 hours | time of peak expression of ISGs after injection ([7]; C57BL/6 mice): 1 to 6 h | ISG gene expression (OAS, Pkr, Mx1) in the livers, spleen and blood of mice ([7]; C57BL/6 mice, i.p or i.v, 10 μg-250 μg): induced ISG gene expression | OAS-1 hr ([7]; blood, C57BL/6 mice): 12 fold expression relative to HPRT gene expression | OAS-6 hr ([7]; blood, C57BL/6 mice): 18 fold expression relative to HPRT gene expression | OAS-24 hr ([7]; blood, C57BL/6 mice): 11 fold expression relative to HPRT gene expression | OAS-48 hr ([7]; blood, C57BL/6 mice): 10 fold expression relative to HPRT gene expression | OAS-1 hr ([7]; liver, C57BL/6 mice): 2.5 fold expression relative to HPRT gene expression | OAS-6 hr ([7]; liver, C57BL/6 mice): 4 fold expression relative to HPRT gene expression | OAS-24 hr ([7]; liver, C57BL/6 mice): 2.5 fold expression relative to HPRT gene expression | OAS-48 hr ([7]; liver, C57BL/6 mice): 2.8 fold expression relative to HPRT gene expression | OAS (24 hr) ([7]; mice injected with 10 μg): 3.7 | OAS (24 hr) ([7]; mice injected with 50 μg): 4.2 | OAS (24 hr) ([7]; mice injected with 250 μg): 6 | OAS-1 hr ([7]; spleen, C57BL/6 mice): 4 fold expression relative to HPRT gene expression | OAS-6 hr ([7]; spleen, C57BL/6 mice): 6 fold expression relative to HPRT gene expression | OAS-24 hr ([7]; spleen, C57BL/6 mice): 3.2 fold expression relative to HPRT gene expression | OAS-48 hr ([7]; spleen, C57BL/6 mice): 3.2 fold expression relative to HPRT gene expression | EC50 NR [8]: 2 µg/mL | IC50 NR [8]: >10 µg/mL | EC50 (antiviral activity, OD570) (EMCV): 0.0006 µg/mL | EC50 NR (Rhino 2): >10 µg/mL | IC50 NR (Rhino 2): >10 µg/mL | EC50 NR (Vaccinia virus [9]): >10 µg/mL | IC50 NR (Vaccinia virus [9]): >10 µg/mL | EC50 NR (Parainfluenza virus [10]): >10 µg/mL | IC50 NR (Parainfluenza virus [10]): >10 µg/mL | EC50 NR (Coxsackie B4 virus): >10 µg/mL | IC50 NR (Coxsackie B4 virus): >10 µg/mL
